Data on 125 sequences can be found in the supplement of paper PMC9112550, “Optimization of the antimicrobial peptide Bac7 by deep mutational scanning” (BMC Biology, 2022).

The data set relates to Escherichia coli TOP10. Nature of the data set: shrunken log2 fold change of peptide-encoding DNA abundance (4.5 h post-induction vs induction); higher = less antimicrobial activity (less host growth inhibition). As to conditions: time post-induction: 4.5 h; library: site-saturation at positions 5, 18, 19, 20.
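Also: peptides expressed intracellularly from a pBAD plasmid library in pooled LB shake-flask culture, induced with 0.3% L-arabinose, DNA abundance read by NGS, three biological replicates, DESeq2 with apeglm shrinkage.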

As to RRIRVRPPRLPRPRPRPNGDPRP, the “shrunken log2 fold change” value is -0.187. With RRIRSRPPRLPRPRPRPAWAPRP the figure was 0.333; with RRIRVRPPRLPRPRPRPVNCPRP, -0.17. For RRIRWRPPRLPRPRPRPYDGPRP, the “shrunken log2 fold change” value was -0.337. As to RRIRMRPPRLPRPRPRPFFQPRP, the “shrunken log2 fold change” value was -0.134. In the case of RRIRDRPPRLPRPRPRPGMPPRP, the “shrunken log2 fold change” value was -0.221. With RRIRCRPPRLPRPRPRPMSDPRP the figure was 0.113. As for RRIRHRPPRLPRPRPRPTQKPRP, the “shrunken log2 fold change” value is -0.00748. With RRIRHRPPRLPRPRPRPHLPPRP the figure was -0.0497; with RRIRCRPPRLPRPRPRPSKIPRP, -0.597; with RRIRWRPPRLPRPRPRPLTTPRP, 0.235. With RRIRMRPPRLPRPRPRPRQDPRP the figure was 0.271; with RRIRQRPPRLPRPRPRPLKHPRP, -0.589. RRIRHRPPRLPRPRPRPPRLPRP: the “shrunken log2 fold change” value came out at 0.0241. With RRIRTRPPRLPRPRPRPCLEPRP the figure was -0.279. Under RRIRERPPRLPRPRPRPACCPRP stands 0.0931; under RRIRGRPPRLPRPRPRPTFGPRP, 0.404.

For the sequence RRIRSRPPRLPRPRPRPQKCPRP, the “shrunken log2 fold change” value came to 0.0984. With RRIRFRPPRLPRPRPRPYWEPRP the figure was -0.391.

Consider RRIRMRPPRLPRPRPRPSMIPRP, for which the “shrunken log2 fold change” value stood at 0.229. Take RRIRNRPPRLPRPRPRPEQLPRP: the “shrunken log2 fold change” value was found to be 0.389.

Take RRIRCRPPRLPRPRPRPQQGPRP: the “shrunken log2 fold change” value turned out to be 0.188. With RRIRERPPRLPRPRPRPKIDPRP the figure was -0.0798.

For the sequence RRIRIRPPRLPRPRPRPIPEPRP, the “shrunken log2 fold change” value is -0.158. Under RRIRDRPPRLPRPRPRPGVPPRP stands 0.000778; under RRIRARPPRLPRPRPRPKGPPRP, 0.212. On to RRIRNRPPRLPRPRPRPDYHPRP, for which the “shrunken log2 fold change” value was 0.00923. For RRIRMRPPRLPRPRPRPQGHPRP, the “shrunken log2 fold change” value turned out to be 0.0616. RRIRSRPPRLPRPRPRPVTRPRP: the “shrunken log2 fold change” value is -0.538.

With RRIRTRPPRLPRPRPRPVQRPRP, the “shrunken log2 fold change” value was determined as 0.132. On to RRIRPRPPRLPRPRPRPLSEPRP, for which the “shrunken log2 fold change” value stood at 0.126. For RRIRLRPPRLPRPRPRPKGGPRP, the “shrunken log2 fold change” value was 0.01. As for RRIRLRPPRLPRPRPRPKIMPRP, the “shrunken log2 fold change” value was -0.314. With RRIRFRPPRLPRPRPRPHKHPRP the figure was -0.579; with RRIRARPPRLPRPRPRPLWRPRP, 0.24; with RRIRKRPPRLPRPRPRPVRHPRP, 0.0899. In the case of RRIRMRPPRLPRPRPRPDDIPRP, the “shrunken log2 fold change” value was -0.00151. Under RRIRSRPPRLPRPRPRPTPPPRP stands 0.43.

As to RRIRWRPPRLPRPRPRPPSSPRP, the “shrunken log2 fold change” value was determined as 0.778. Regarding RRIRQRPPRLPRPRPRPTKEPRP, the “shrunken log2 fold change” value came out at 0.0425. Under RRIRDRPPRLPRPRPRPGYEPRP stands -0.0119. With RRIRPRPPRLPRPRPRPESRPRP the figure was 0.11; with RRIRMRPPRLPRPRPRPQRPPRP, 0.389. Under RRIRSRPPRLPRPRPRPMKKPRP stands -0.0833. Regarding RRIRYRPPRLPRPRPRPEPHPRP, the “shrunken log2 fold change” value was -0.0423. Under RRIRGRPPRLPRPRPRPRGSPRP stands 0.832; under RRIRIRPPRLPRPRPRPHYNPRP, -1.03; under RRIRLRPPRLPRPRPRPVETPRP, 0.217. As for RRIRGRPPRLPRPRPRPESNPRP, the “shrunken log2 fold change” value stood at 2. Consider RRIRHRPPRLPRPRPRPDNKPRP, for which the “shrunken log2 fold change” value was -0.27.

RRIRERPPRLPRPRPRPNLGPRP: the “shrunken log2 fold change” value was -0.161. Consider RRIRVRPPRLPRPRPRPTVPPRP, for which the “shrunken log2 fold change” value is -0.138. In the case of RRIRFRPPRLPRPRPRPQHRPRP, the “shrunken log2 fold change” value is -0.0907. Under RRIRFRPPRLPRPRPRPWGWPRP stands 0.346; under RRIRLRPPRLPRPRPRPLYNPRP, -0.305; under RRIRRRPPRLPRPRPRPNHGPRP, -0.0793. On to RRIRDRPPRLPRPRPRPTITPRP, for which the “shrunken log2 fold change” value is 0.0537.

For RRIRARPPRLPRPRPRPVLYPRP, the “shrunken log2 fold change” value was 0.0232.

Consider RRIRPRPPRLPRPRPRPRSHPRP, for which the “shrunken log2 fold change” value stood at 0.16.

On to RRIRDRPPRLPRPRPRPEFEPRP, for which the “shrunken log2 fold change” value is 0.824. Regarding RRIRIRPPRLPRPRPRPSFAPRP, the “shrunken log2 fold change” value is -0.24. Under RRIRKRPPRLPRPRPRPEKLPRP stands 0.103; under RRIRYRPPRLPRPRPRPRYWPRP, -0.317. With RRIRMRPPRLPRPRPRPWVPPRP the figure was -0.0184; with RRIRFRPPRLPRPRPRPKRKPRP, 0.425. Under RRIRIRPPRLPRPRPRPAIKPRP stands -0.265. Take RRIRNRPPRLPRPRPRPRSRPRP: the “shrunken log2 fold change” value came to 0.177. Under RRIRKRPPRLPRPRPRPSAKPRP stands 0.397; under RRIRKRPPRLPRPRPRPLESPRP, 0.515. With RRIRYRPPRLPRPRPRPYHIPRP the figure was -0.23; with RRIRKRPPRLPRPRPRPIKSPRP, 3.22; with RRIRARPPRLPRPRPRPLNHPRP, -0.265.

RRIRIRPPRLPRPRPRPWMSPRP: the “shrunken log2 fold change” value is -0.266.

RRIRKRPPRLPRPRPRPKWGPRP: the “shrunken log2 fold change” value turned out to be 0.594. In the case of RRIRARPPRLPRPRPRPYQHPRP, the “shrunken log2 fold change” value is -0.272. Under RRIRSRPPRLPRPRPRPRLQPRP stands 0.307. With RRIRWRPPRLPRPRPRPTEQPRP the figure was 0.357.

Consider RRIRERPPRLPRPRPRPAQHPRP, for which the “shrunken log2 fold change” value stood at 0.124.

For the sequence RRIRKRPPRLPRPRPRPGPTPRP, the “shrunken log2 fold change” value was 0.65. Turning to RRIRQRPPRLPRPRPRPFFCPRP, the “shrunken log2 fold change” value was 0.111. As to RRIRTRPPRLPRPRPRPMEAPRP, the “shrunken log2 fold change” value was -0.0389.

In the case of RRIRPRPPRLPRPRPRPYQSPRP, the “shrunken log2 fold change” value was -0.194. Under RRIRNRPPRLPRPRPRPQAQPRP stands -0.0086; under RRIRIRPPRLPRPRPRPDLCPRP, -0.101. For RRIRKRPPRLPRPRPRPQWDPRP, the “shrunken log2 fold change” value was determined as 0.00929.

Turning to RRIRYRPPRLPRPRPRPWLFPRP, the “shrunken log2 fold change” value was 0.0905. Turning to RRIRQRPPRLPRPRPRPICYPRP, the “shrunken log2 fold change” value is 0.0933. Turning to RRIRARPPRLPRPRPRPDLAPRP, the “shrunken log2 fold change” value came out at 1.07. With RRIRVRPPRLPRPRPRPGQSPRP the figure was 0.0938; with RRIRVRPPRLPRPRPRPVCWPRP, 0.472. Under RRIRDRPPRLPRPRPRPCQIPRP stands 0.0759; under RRIRVRPPRLPRPRPRPPGVPRP, 0.216.

As to RRIRCRPPRLPRPRPRPNKKPRP, the “shrunken log2 fold change” value came to 0.0294. Under RRIRIRPPRLPRPRPRPTVRPRP stands 0.158; under RRIRWRPPRLPRPRPRPRHMPRP, -0.139. Under RRIRARPPRLPRPRPRPQGEPRP stands 0.294. Under RRIRSRPPRLPRPRPRPRLVPRP stands 0.356. Take RRIRIRPPRLPRPRPRPIAMPRP: the “shrunken log2 fold change” value is -0.216. In the case of RRIRNRPPRLPRPRPRPSRNPRP, the “shrunken log2 fold change” value was found to be 0.0074.

Regarding RRIRLRPPRLPRPRPRPYVTPRP, the “shrunken log2 fold change” value is -0.169. For the sequence RRIRVRPPRLPRPRPRPWLLPRP, the “shrunken log2 fold change” value worked out at 0.208. Under RRIRQRPPRLPRPRPRPDKSPRP stands -0.0319; under RRIRIRPPRLPRPRPRPVISPRP, -0.43. With RRIRPRPPRLPRPRPRPSIYPRP the figure was -0.584; with RRIRQRPPRLPRPRPRPHQDPRP, -0.327.

Turning to RRIRVRPPRLPRPRPRPVAQPRP, the “shrunken log2 fold change” value is 0.247.

Consider RRIRWRPPRLPRPRPRPAWPPRP, for which the “shrunken log2 fold change” value is 0.558. With RRIRFRPPRLPRPRPRPEVEPRP the figure was 0.00408; with RRIRSRPPRLPRPRPRPCFSPRP, -0.378; with RRIRDRPPRLPRPRPRPKARPRP, 0.132. As to RRIRHRPPRLPRPRPRPHNHPRP, the “shrunken log2 fold change” value was -0.577.

With RRIRSRPPRLPRPRPRPMWVPRP, the “shrunken log2 fold change” value is -0.0635. Under RRIRLRPPRLPRPRPRPSWSPRP stands 0.0192; under RRIRMRPPRLPRPRPRPYDMPRP, -0.0585; under RRIRARPPRLPRPRPRPCTMPRP, -0.207. With RRIRDRPPRLPRPRPRPASPPRP the figure was 0.384; with RRIRFRPPRLPRPRPRPFMHPRP, -0.147; with RRIRRRPPRLPRPRPRPYSWPRP, -0.275. Under RRIRWRPPRLPRPRPRPELWPRP stands 0.729. Take RRIRERPPRLPRPRPRPPTWPRP: the “shrunken log2 fold change” value was found to be 0.113. Under RRIRCRPPRLPRPRPRPATGPRP stands 0.201; under RRIRVRPPRLPRPRPRPNDHPRP, -0.302; under RRIRKRPPRLPRPRPRPGAVPRP, 0.749. As to RRIRSRPPRLPRPRPRPYAIPRP, the “shrunken log2 fold change” value was -0.228.

Consider RRIRPRPPRLPRPRPRPRMAPRP, for which the “shrunken log2 fold change” value turned out to be 0.278.
